Positions count from the first letter of the chain named.
Tests used:
[1] = biological target: T1, Aβ fibrils (fibrils of Aβ1-42) (UniProt P05067 672-713); assay: immunodot blot, antibody at 10 nM, 30 second exposure
T1 construct: domain: Aβ1-42; Fibrillar (aggregated) state of synthetic Aβ1-42; For flow cytometry the fibrils were doped with 1% biotinylated Aβ1-42 and held on streptavidin Dynabeads; for dot blots unlabeled fibrils were spotted on nitrocellulose; also called Aβ42 fibrils; fibrillar Aβ
Procedure: (§1) FIG. 6A includes images of an immunoblot analysis of the conformational and sequence specificity of the selected Aβ antibodies. Disaggregated Aβ and fibrillar Aβ, IAPP, and αSyn were immobilized on nitrocellulose membranes and probed with anti-Aβ antibodies (10 nM in PBS with 1% milk). The blots were imaged after relatively short exposure times (30 seconds) except for AF1 (45 minute exposure). A loading control blot was detected using colloidal silver stain. The experiments were repeated three times and a representative example is shown. FIG. 6B includes images of immunoblot analysis of the conformational and sequence specificity of the selected Aβ antibodies using a long exposure time. The blots were processed and imaged as described in FIG. 6A except that all of the blots were processed after a relatively long exposure time (45 minutes). A loading control blot was detected using colloidal silver stain. The experiments were repeated three times and a representative example is shown.
(§2) The conformational specificity of the selected antibodies was then assessed using immunodot blots (FIG. 6A).

[2] = biological target: T2, disaggregated Aβ (Aβ1-42) (UniProt P05067 672-713); assay: immunodot blot, antibody at 10 nM, 45 minute exposure
T2 construct: domain: Aβ1-42; Same peptide as the fibrils, in the disaggregated (soluble) state; also called soluble Aβ; Aβ monomer
Procedure: as §1, §2

[3] = biological target: T1, Aβ fibrils (fibrils of Aβ1-42); assay: flow cytometry, antibody on Aβ fibril-coated streptavidin beads (fibril batch of FIG. 5)
Procedure: (§3) For affinity analysis, the binding of antibodies to Aβ fibrils was evaluated using streptavidin dynabeads and flow cytometry. Beads were immobilized with 1% biotinylated fibrils as described above. The fibril-coated beads were washed twice with PBSB and then blocked with 10% milk in PBS at room temperature for 1 hour with end-over-end mixing. Afterward, the beads were washed 2× with PBSB.
(§4) Antibodies were thawed and centrifuged at 21000× g for 5 minutes to remove aggregates. The supernatant was transferred to a new tube and the antibody concentration was determined by measuring absorbance at 280 nm. Antibody dilutions were made in PBSB. Fibril-coated beads (1.25×10⁵ beads per evaluated antibody concentration) were incubated with antibodies in 96 well plates (Greiner, 650261) in 1% milk for 3 hours at 25° C.(300 RPM). Next, the plates were centrifuged at 3500 RPM for 5 minutes, the supernatants were discarded, and the beads were washed once with ice-cold PBSB. After washing, the plates were spun down again and the beads with resuspended with 300× diluted goat anti-human Fc AF647 (Jackson Immunoresearch, 109-605-098) on ice for 4-5 minutes. […] Two independent repeats were performed with different batches of beads coated with Aβ fibrils.

[4] = biological target: T1, Aβ fibrils (fibrils of Aβ1-42); assay: flow cytometry, antibody on Aβ fibril-coated streptavidin beads (fibril batch of FIG. 10)
Procedure: as §3, §4

[5] = biological target: T1, Aβ fibrils (fibrils of Aβ1-42); assay: flow cytometry, antibody on Aβ fibril-coated streptavidin beads
Procedure: as §3, §4

B1: Clone 101 (Fc fusion)
VH: EVQLVESGGGLVQPGGSLRLSCAASGFNIKDTYIHWVRQAPGKGLEWVARIYPASGSTRYAGSVKGRFTISADTSKNTAYLQMNSLRAEDTAVYYCARDGYDGSYFVGYDYNDFYDYWGQGTLVTVSS
VL: DIQMTQSPSSLSASVGDRVTITCRASQNVYSAVTWYQQKPGKAPKLLIYSASFLYSGVPSRFSGSRSGTDFTLTISSLQPEDFATYYCQQHSTYPPTFGQGTKVEIK
[1]
  binding result: binds
[2]
  binding result: binds

B2: Clone 93 (Fc fusion)
VH: B1 VH with A54S, S55N, S57Y
VL: B1 VL with S31N, S92N
[1]
  binding result: binds
[2]
  binding result: binds

B3: Clone 97 (Fc fusion)
VH: B1 VH with S57A, G62D
VL: B1 VL with Y30A, S31Y
notes: also called parental antibody (clone 97); 97 WT
[3]
  EC50: 8 nM
[4]
  EC50: 18 nM

B4: crenezumab (antibody, V domains shown)
VH: EVQLVESGGGLVQPGGSLRLSCAASGFTFSSYGMSWVRQAPGKGLELVASINSNGGSTYYPDSVKGRFTISRDNAKNSLYLQMNSLRAEDTAVYYCASGDYWGQGTTVTVSS
VL: DIVMTQSPLSLPVTPGEPASISCRSSQSLVYSNGDTYLHWYLQKPGQSPQLLIYKVSNRFSGVPDRFSGSGSGTDFTLKISRVEAEDVGVYYCSQSTHVPWTFGQGTKVEIKR
[5]
  EC50: 9 nM
